Assay results taken from patent US20110104788A1 (published 2011).

B2: mouse coagulation factor X (enzyme)
chain: ANSFFEEFKKGNLERECMEEICSYEEVREIFEDDEKTKEYWTKYKDGDQCESSPCQNQGACRDGIGGYTCTCSEGFEGKNCELFVRKLCRLDNGDCDQFCREEQNSVVCSCASGYFLGNDGKSCISTAPFPCGKITTGRRKRSVALNTSDSELDLEDALLDEDFLSPTENPIELLNLNETQPERSSDDLVRIVGGRECKDGECPWQALLINEDNEGFCGGTILNEFYILTAAHCLHQARRFKVRVGDRNTEKEEGNEMVHEVDVVIKHNKFQRDTYDYDIAVLRLKTPITFRMNVAPACLPQKDWAESTLMTQKTGIVSGFGRTHEKGRQSNILKMLEVPYVDRNTCKLSTSFSITQNMFCAGYEAKLEDACQGDSGGPHVTRFKNTYYVTGIVSWGEGCARKGKYGIYTKVTTFLKWIDRSMKARVGPTAETPRTAGPPN

Columns and labels:
[1] = molecular target: B2; assay: SPR (Biacore T100); mouse FX immobilised on CM5 chip, inhibitor injected; heterogeneous ligand model
[2] = molecular target: T1, human coagulation factor X (FX), full-length zymogen (human, UniProt P00742 41-488, genetically encoded glutamic acid residues of the Gla domain converted to γ-carboxyglutamic acid); assay: SPR (Biacore T100); human FX immobilised on CM5 chip, inhibitor injected; heterogeneous ligand model
T1 construct: mature; also called human FX; hFX

[3] = molecular target: Ixolaris, 12 kDa two-Kunitz domain protein isolated from tick salivary gland (tick, UniProt Q964Q0 27-165)
[4] = molecular target: T2, adenovirus serotype 5 (Ad5) virus particle (human adenovirus serotype 5, UniProt P04133 1-952); assay: SPR; biotinylated EGF2-SP FXa coupled to SA chip, Ad5 injected
T2 construct: also called Ad5CMVlacZ (control virus with unmodified hexon); intact virus Ad5

B1: Factor X-binding protein (X-bp) from Deinagkistrodon acutus (other)
chain 1: DCSSGWSSYEGHCYKVFKQSKTWADAESFCTKQVNGGHLVSIESSGEADFVGQLIAQKIKSAKIHVWIGLRAQNKEKQCSIEWSDGSSISYENWIEEESKKCLGVHIETGFHKWENFYCEQQDPFVCEA
chain 2: DCPSDWSSYEGHCYKPFNEPKNWADAENFCTQQHTGSHLVSFQSTEEADFVVKLAFQTFDYGIFWMGLSKIWNQCNWQWSNAAMLKYTDWAEESYCVYFKSTNNKWRSITCRMIANFVCEFQA
Kd [1]: 1.04 nM
koff [1]: 0.00031 s⁻¹
kon [1]: 296000 M⁻¹ s⁻¹
Kd [2]: 0.118 nM
koff [2]: 0.00023 s⁻¹
kon [2]: 1.96e+06 M⁻¹ s⁻¹

B2
Kd [3]: 0.000515 nM
koff [3]: 8.1e-07 s⁻¹
kon [3]: 1.57e+06 M⁻¹ s⁻¹

B3: human FXa mutant containing the C-terminal EGF2-SP domain (EGF2-SP FXa) (enzyme)
chain: TRKLCSLDNGDCDQFCHEEQNSVVCSCARGYTLADNGKACIPTGPYPCGKQTLERIVGGQECKDGECPWQALLINEENEGFCGGTILSEFYILTAAHCLYQAKRFKVRVGDRNTEQEEGGEAVHEVEVVIKHNRFTKETYDFDIAVLRLKTPITFRMNVAPACLPERDWAESTLMTQKTGIVSGFGRTHEKGRQSTRLKMLEVPYVDRNSCKLSSSFIITQNMFCAGYDTKQEDACQGDSGGPHVTRFKDTYFVTGIVSWGEGCARKGKYGIYTKVTAFLKWIDRSMKTRGLPKAKSHAPEVITSSPLK
modifications: biotinylated with biotin-FPRCK
notes: domain: EGF2-SP; also called EGF2-SP fragment; rFX EGF2-SP
binding result [4]: no binding
